Laboratory results reported in patent US20230138930A1 (FUDAN UNIVERSITY, published 2023).
Changes are numbered by the printed parent chain.

B1: TF-mAb-Ch (antibody, V domains shown)
VH: QVQLQQPGAELVRPGASVKLSCKASGYSFISYWMNWVKQRPGQGLEWIGMIYPADSETRLNQKFKDKATLTVDKSSSTAYMQLSSPTSEDSAVYYCAREDYGSSDYWGQGTTLTVSS
VL: EILLTQSPAIIAASPGEKVTITCSASSSVSYMNWYLQKPGSSPKIWIYGISNLASGVPARFSGSGSGTSFSFTINSMETEDVATYYCQQKSSFPWTFGGGTKLEIK
notes: Variable regions of TF-mAb-SC1 cloned onto human IgG1 heavy chain constant region and human kappa constant region; also called human-mouse chimeric antibody
B2: TF-mAb-H42 (antibody, V domains shown)
VH: QVQLVQSGAEVKKPGASVKVSCKASGYSFISYWMNWVRQAPGQGLEWIGMIYPADSETRLNQKFKDRATLTVDKSTSTAYMELSSLRSEDTAVYYCAREDYGSSDYWGQGTTVTVSS
VL: DIQLTQSPSSLSASVGDRVTITCSASSSVSYMNWYQQKPGKSPKIWIYGISNLASGVPSRFSGSGSGTDFTLTISSLQPEDFATYYCQQKSSFPWTFGGGTKVEIK
B3: TF-mAb-H47 (antibody, V domains shown)
VH: B2 VH
VL: EIVLTQSPDFQSVTPKEKVTITCSASSSVSYMNWYQQKPDQSPKIWIYGISNLASGVPSRFSGSGSGTDFTLTINSLEAEDAATYYCQQKSSFPWTFGGGTKVEIK
B4: TF-mAb-H43 (antibody, V domains shown)
VH: QVQLVQSGSELKKPGASVKVSCKASGYSFISYWMNWVRQAPGQGLEWIGMIYPADSETRLNQKFKDRAVLSVDKSVSTAYLQICSLKAEDTAVYYCAREDYGSSDYWGQGTTVTVSS
VL: B2 VL
B5: TF-mAb-H48 (antibody, V domains shown)
VH: B4 VH
VL: B3 VL
B6: TF-mAb-H30 (antibody, V domains shown)
VH: EVQLVQSGAEVKKPGESLKISCKGSGYSFTSYWMNWVRQMPGKGLEWMGMIYPADSETRLNQKFKDKATLSVDKSISTAYLQWSSLKASDTAMYYCAREDYGSSDYWGQGTTVTVSS
VL: EIVLTQSPATLSLSPGERATLSCSASSSVSYMNWYQQKPGQAPRIWIYGISNLASGIPARFSGSGSGTDFTLTISSLEPEDFAVYYCQQKSSFPWTFGGGTKVEIK
B7: TF-mAb-H40 (antibody, V domains shown)
VH: B6 VH
VL: B2 VL
B8: TF-mAb-H32 (antibody, V domains shown)
VH: B2 VH
VL: B6 VL
B9: TF-mAb-H38 (antibody, V domains shown)
VH: B4 VH
VL: B6 VL with A42S, I57V
B10: TF-mAb-H45 (antibody, V domains shown)
VH: B6 VH
VL: B3 VL
B11: TF-mAb-H33 (antibody, V domains shown)
VH: B4 VH
VL: B6 VL
B12: TF-mAb-H39 (antibody, V domains shown)
VH: B6 VH with K67Q
VL: B2 VL
B13: TF-mAb-H29 (antibody, V domains shown)
VH: B6 VH with K67Q
VL: B6 VL
B14: TF-mAb-H37 (antibody, V domains shown)
VH: B2 VH
VL: B6 VL with A42S, I57V
B15: TF-mAb-H46 (antibody, V domains shown)
VH: B6 VH with R38K
VL: B3 VL
B16: TF-mAb-H34 (antibody, V domains shown)
VH: B6 VH with K67Q
VL: B6 VL with A42S, I57V
B17: TF-mAb-H35 (antibody, V domains shown)
VH: B6 VH
VL: B6 VL with A42S, I57V
B18: TF-mAb-H36 (antibody, V domains shown)
VH: B6 VH with R38K
VL: B6 VL with A42S, I57V
B19: TF-mAb-H41 (antibody, V domains shown)
VH: B6 VH with R38K
VL: B2 VL
B20: TF-mAb-H44 (antibody, V domains shown)
VH: B6 VH with K67Q
VL: B3 VL
B21: TF-mAb-H31 (antibody, V domains shown)
VH: B6 VH with R38K
VL: B6 VL

target: T1, human TF on cells (MDA-MB-231, BxPC-3 and other tumor cells with high TF expression) (human, UniProt P13726 33-295); assay: flow cytometry on MDA-MB-231 cells, antibody at 1 µg/mL
T1 construct: whole, on cells; Endogenous expression on tumor cell lines; also called cell surface TF

MFI | Binder
3370 MFI | B1
2970 MFI | B2
3000 MFI | B3
2820 MFI | B4
2610 MFI | B5
2930 MFI | B6
3180 MFI | B7
2400 MFI | B8
2870 MFI | B9
3100 MFI | B10
2420 MFI | B11
3180 MFI | B12
2960 MFI | B13
2460 MFI | B14
3120 MFI | B15
2460 MFI | B16
2930 MFI | B17
3040 MFI | B18
3000 MFI | B19
3200 MFI | B20
3080 MFI | B21

target: T1, human TF on cells (MDA-MB-231, BxPC-3 …); assay: flow cytometry on MDA-MB-231 cells, antibody at 10 µg/mL

MFI | Binder
3540 MFI | B1
3350 MFI | B2
3150 MFI | B3
3300 MFI | B4
2900 MFI | B5
3240 MFI | B6
3310 MFI | B7
3010 MFI | B8
3150 MFI | B9
3480 MFI | B10
2840 MFI | B11
3380 MFI | B12
3580 MFI | B13
2990 MFI | B14
3410 MFI | B15
3270 MFI | B16
3020 MFI | B17
3090 MFI | B18
3610 MFI | B19
3430 MFI | B20
3470 MFI | B21
